Reference: US20170022281A1 (AbbVie / Abbott, published 2017)

Target: T1, human PRLR (Biacore antigen) (human, UniProt P16471 25-234, limits assumed)
T1 construct: The construct injected over captured antibody is not described (a soluble form is likely); also called huPRLR
T1 sequence: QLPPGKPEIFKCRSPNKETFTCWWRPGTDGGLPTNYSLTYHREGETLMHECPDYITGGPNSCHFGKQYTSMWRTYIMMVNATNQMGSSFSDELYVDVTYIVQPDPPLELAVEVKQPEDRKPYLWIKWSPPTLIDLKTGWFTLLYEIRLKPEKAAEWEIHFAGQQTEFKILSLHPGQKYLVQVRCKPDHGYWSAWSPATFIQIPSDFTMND
Assay: SPR Biacore

B1: Ab39 (antibody, human IgG1, kappa, V domains shown)
VH: EVQLVQSGAEVKKPGSSVKVSCKASGYTFTSYWIHWVRQAPGQGLEWIGEIDPSDSYTNYNQKFKGRATLTVDKSSSTAYMELSSLRSEDTAVYYCARSFFTNWFAYWGQGTLVTVSS
VL: DVVMTQTPLSLSVTPGQPASISCRSSQSLVHSNGNTYLHWYLQKPGQSPQLLIYKVSNRFSGVPDRFSGSGSGTDFTLKISRVEAEDVGVYFCSQSTHVPFTFGGGTKVEIKR
notes: humanized from Ab7; G1; also called Ab4 HC.1a and Ab4 LC.1a
In the case of B1, the “fold decrease in affinity against chAb7” value is reported as about 22 fold.
